Drawing on the Immune Epitope Database (IEDB), this text covers Kd and IC50 for 24 sequences.

A value given as a limit tells only on which side of the number the result lay.

In one test the target is HLA-B*54:01. Briefly: IEDB peptide-MHC binding, purified MHC/competitive/radioactivity; filed as Kd, often an IC50 or EC50 that approximates it; ≥ and ≤ were set here for values at or beyond the usual limits of such assays.
The target in the next test is HLA-B*07:02. Described as above.
Another test addresses HLA-B*53:01. Described as above.
For another test, the target named is HLA-B*51:01. Described as above.
In another test the target is HLA-B*35:01. The description is as above.
Another test addresses HLA-A*30:02. The test is described as above. The note with it: source organism: Dengue virus 4 Philippines/H241/1956.
Another test has as its target HLA-B*15:01. Described as above.
Another test addresses HLA-A*26:01. Described as above. Particulars: source organism: Dengue virus 4 Philippines/H241/1956.
The target of the next test is HLA-A*03:01. Briefly: IEDB peptide-MHC binding, purified MHC/competitive/fluorescence; filed as Kd, often an IC50 or EC50 that approximates it; ≥ and ≤ were set here for values at or beyond the usual limits of such assays.
Another test addresses HLA-A*68:02. In words: IEDB peptide-MHC binding, purified MHC/competitive/radioactivity; filed as Kd, often an IC50 or EC50 that approximates it; ≥ and ≤ were set here for values at or beyond the usual limits of such assays.
For the next test, the target named is HLA-A*01:01. Described as above. The note with it: source organism: Dengue virus 4 Philippines/H241/1956.
A further test has as its target HLA-A*02:06. The test is described as above.
Another test has as its target HLA-A*32:01. Described as above. The note with it: source organism: Vaccinia virus WR.
The next test concerns the target HLA-A*02:01. Briefly: IEDB peptide-MHC binding, purified MHC/competitive/fluorescence; ≥ and ≤ were set here for values at or beyond the usual limits of such assays. Particulars: source organism: Sudan ebolavirus.
For a further test, the target named is HLA-A*11:01. Described as above. Particulars: source organism: Sudan ebolavirus.
For a further test, the target named is HLA-A*24:02. The description is as above. The note with it: source organism: Sudan ebolavirus.
Setting [1] is: source organism: Mammarenavirus whitewaterense.
The mark [2] stands for this setting: source organism: Dengue virus 4 Philippines/H241/1956.
Setting [3] is: source organism: Vaccinia virus WR.
Setting [4] is: source organism: SARS coronavirus Tor2.
Setting [5] is: source organism: Dengue virus 2 Jamaica/1409/1983.
[6] abbreviates: source organism: Mammarenavirus lassaense.
Setting [7] is: source organism: Dengue virus 3 Martinique/1243/1999.
[8] abbreviates: source organism: Triticum aestivum.
The mark [9] stands for this setting: source organism: Dengue virus 4 Dominica/814669/1981.

By Kd is commonly meant the concentration at which binding is half-saturated. As to APTGGVVKI, the Kd with HLA-B*54:01 (setting [1]) is at least 78100 nM; with HLA-B*07:02 (setting [1]), 1780 nM; in the test with HLA-B*53:01 (setting [1]) it was 10500 nM; with HLA-B*51:01 (setting [1]), at least 57800 nM; with HLA-B*35:01 (setting [1]), 9320 nM.

For AVFKMSPGY, the Kd was 82.2 nM in the test with HLA-A*30:02, 14.3 nM with HLA-B*15:01 (setting [2]) and 1920 nM with HLA-A*26:01.

As for CLLNYSGLK, the Kd in the test with HLA-A*03:01 (source organism: Escherichia coli O139:H28 str. E24377A) stood at 27.8 nM.

For the sequence CPASKKESVI, the Kd is 2410 nM with HLA-B*54:01 (setting [3]); 7.12 nM in the test with HLA-B*07:02 (setting [3]); 92.3 nM with HLA-B*53:01 (setting [3]); 9310 nM with HLA-B*51:01 (setting [3]); at least 69900 nM in the test with HLA-B*35:01 (setting [3]).

With CPAVAVHDF, the Kd worked out at 7480 nM with HLA-B*54:01 (setting [4]); 1640 nM with HLA-B*07:02 (setting [4]); 27.6 nM with HLA-B*53:01 (setting [4]); 241 nM with HLA-B*51:01 (setting [4]); 14.4 nM with HLA-B*35:01 (setting [4]).

Regarding CSAVPSHWV, the Kd in the test with HLA-A*68:02 (setting [5]) was determined as 9.21 nM.

As to ETALMVIGM, the Kd with HLA-A*26:01 is 308 nM; with HLA-A*68:02 (setting [2]) it was 10.5 nM.

With ETFSMGLLCL, the Kd in the test with HLA-A*26:01 turned out to be 289 nM; with HLA-A*01:01, 7330 nM; with HLA-A*68:02 (setting [2]), 6.59 nM.

As to EVLTLATGPV, the Kd in the test with HLA-A*68:02 (setting [2]) worked out at 23.5 nM.

With FPYIMGSVEL, the Kd with HLA-B*54:01 (setting [6]) amounted to 155 nM; with HLA-B*07:02 (setting [6]), 241 nM; with HLA-B*53:01 (setting [6]), 80.2 nM; in the test with HLA-B*51:01 (setting [6]) it was 368 nM; in the test with HLA-B*35:01 (setting [6]) it was 12.4 nM.

Take FTILALFLA: the Kd with HLA-A*02:06 (setting [7]) was 0.746 nM; with HLA-A*68:02 (setting [7]) it was 35.5 nM.

For the sequence GPMPYMISTY, the Kd in the test with HLA-B*54:01 (setting [3]) was 1500 nM; with HLA-B*07:02 (setting [3]), 886 nM; in the test with HLA-B*53:01 (setting [3]), 272 nM; in the test with HLA-B*51:01 (setting [3]), at least 64700 nM; with HLA-B*35:01 (setting [3]), 89.3 nM.

GSIGGVFTSV: the Kd with HLA-A*68:02 (source organism: Dengue virus 1 Brazil/97-11/1997) was 20.1 nM.

As for HINKLFSVF, the Kd in the test with HLA-A*32:01 came to 907 nM; with HLA-B*15:01 (setting [3]), 0.915 nM.

Consider HSIENSSVNV, for which the Kd with HLA-A*68:02 (setting [5]) is 30.9 nM.

In the test with HLA-A*03:01 (source organism: Bacillus anthracis str. A0488), IILAHFLYK registered a Kd of 12 nM.

For the sequence IPEQSQCQAI, the Kd with HLA-B*54:01 (setting [8]) was at least 25600 nM; with HLA-B*07:02 (setting [8]), 5900 nM; with HLA-B*53:01 (setting [8]), 3890 nM; with HLA-B*51:01 (setting [8]), 774 nM; with HLA-B*35:01 (setting [8]), 6050 nM.

Regarding IPSLFIESSI, the Kd with HLA-B*54:01 (setting [3]) is 429 nM; in the test with HLA-B*07:02 (setting [3]), 680 nM; in the test with HLA-B*53:01 (setting [3]), 1980 nM; with HLA-B*51:01 (setting [3]), 1900 nM; with HLA-B*35:01 (setting [3]), at least 69900 nM.

Take IQRTVFFVL: the Kd in the test with HLA-B*15:01 (setting [2]) stood at 5.09 nM; in the test with HLA-A*02:06 (setting [2]) it was 12.3 nM.

A word on the IC50: it is the point on the concentration scale where inhibition reaches its midpoint. A high value points to weaker potency. Take LIWTLDANI: the IC50 with HLA-A*02:01 is 480 nM; with HLA-A*11:01, at least 166000 nM; with HLA-A*24:02 it was at least 80400 nM.

The sequence LLLKERGLK yielded a Kd in the test with HLA-A*03:01 (source organism: Vibrio vulnificus CMCP6) of 29.6 nM.

On to LMYADDTAGW, for which the Kd with HLA-B*15:01 (setting [9]) is 41.6 nM; with HLA-B*53:01 (setting [9]) it was 46.1 nM.

In the case of LPFHRWHTM, the Kd with HLA-B*54:01 (setting [4]) amounted to 274 nM; in the test with HLA-B*07:02 (setting [4]) it was 8.4 nM; with HLA-B*53:01 (setting [4]), 100 nM; with HLA-B*51:01 (setting [4]) it was 11.1 nM; with HLA-B*35:01 (setting [4]), 7.16 nM.

Turning to LPIDKCSRII, the Kd with HLA-B*54:01 (setting [4]) is 1140 nM; with HLA-B*07:02 (setting [4]), 1400 nM; with HLA-B*53:01 (setting [4]), 603 nM; with HLA-B*51:01 (setting [4]) it was 681 nM; with HLA-B*35:01 (setting [4]), 2550 nM.
